In US20170173132A1 (IMMATICS BIOTECHNOLOGIES, published 2017):
Square brackets hold non-standard residues; d marks the D form. Ends that are not written are not given here. pT = C[C@@H](OP(=O)(O)O)[C@H](N)C(=O)O

Biological target: T1, HLA-A*02:01 (peptide-receptive MHC class I molecule, heavy chain with β2m light chain) (human)
T1 construct: The UV-sensitive placeholder peptide is cleaved on irradiation and exchanged for the tested peptide
Experiment: UV-ligand exchange, anti-β2m ELISA; grade of peptide exchange yield (≥10% = +; ≥20% = ++; ≥50 = +++; ≥75% = ++++)
From the text: Candidate peptides for T cell based therapies according to the present invention were further tested for their MHC binding capacity (affinity). The individual peptide-MHC complexes were produced by UV-ligand exchange, where a UV-sensitive peptide is cleaved upon UV-irradiation, and exchanged with the peptide of interest as analyzed. Only peptide candidates that can effectively bind and stabilize the peptide-receptive MHC molecules prevent dissociation of the MHC complexes. To determine the yield of the exchange reaction, an ELISA was performed based on the detection of the light chain (β2m) of stabilized MHC complexes. The assay was performed as generally described in Rodenko et al. (Rodenko et al., 2006).
96 well MAXISorp plates (NUNC) were coated over night with 2 ug/ml streptavidin in PBS at room temperature, washed 4× and blocked for 1 h at 37° C. in 2% BSA containing blocking buffer. Refolded HLA-A*02:01/MLA-001 monomers served as standards, covering the range of 15-500 ng/ml. Peptide-MHC monomers of the UV-exchange reaction were diluted 100-fold in blocking buffer. Samples were incubated for 1 h at 37° C., washed four times, incubated with 2 ug/ml HRP conjugated anti-β2m for 1 h at 37° C., washed again and detected with TMB solution that is stopped with […]. Absorption was measured at 450 nm. Candidate peptides that show a high exchange yield (preferably higher than 50%, most preferred higher than 75%) are generally preferred for a generation and production of antibodies or fragments thereof, and/or T cell receptors or fragments thereof, as they show sufficient avidity to the MHC molecules and prevent dissociation of the MHC complexes.

peptide exchange yield	Binder
≥ 75%	FIIPTVATA [peptide FIIPTVATA]
50 to 75%	SLAWDVPAA [peptide SLAWDVPAA]
50 to 75%	FMSKLVPAI [peptide FMSKLVPAI]
50 to 75%	SLFPSLVVV [peptide SLFPSLVVV]
20 to 50%	KAFPFYNTV [peptide KAFPFYNTV]
20 to 50%	SLVEGEAVHLA [peptide SLVEGEAVHLA]
50 to 75%	SLNDQGYLL [peptide SLNDQGYLL]
20 to 50%	GLLPTSVSPRV [peptide GLLPTSVSPRV]
20 to 50%	ILFDVVVFL [peptide ILFDVVVFL]
50 to 75%	GLVATLQSL [peptide GLVATLQSL]
20 to 50%	TIASSIEKA [peptide TIASSIEKA]
≥ 75%	SMMGLLTNL [peptide SMMGLLTNL]
20 to 50%	KLYEGIPVL [peptide KLYEGIPVL]

Further lines, the binder ahead of its results:

Binder	peptide exchange yield
LLM[pT]VAGLKL [peptide LLMUVAGLKL]	≥ 75%
KQLELELEV [peptide KQLELELEV]	50 to 75%
SLAEPRVSV [peptide SLAEPRVSV]	50 to 75%
SLLTEPALV [peptide SLLTEPALV]	50 to 75%
SLFSVPFFL [peptide SLFSVPFFL]	≥ 75%
KLLDMELEM [peptide KLLDMELEM]	≥ 75%
GLHSLPPEV [peptide GLHSLPPEV]	50 to 75%
ALNPVIYTV [peptide ALNPVIYTV]	20 to 50%
FLDEEVKLI [peptide FLDEEVKLI]	50 to 75%
ALEA[pT]QLYL [peptide ALEAUQLYL]	50 to 75%
KMPEHISTV [peptide KMPEHISTV]	50 to 75%
YIDGLESRV [peptide YIDGLESRV]	50 to 75%
GLLGFQAEA [peptide GLLGFQAEA]	≥ 75%
FSFPVSVGV [peptide FSFPVSVGV]	50 to 75%
YILLQSPQL [peptide YILLQSPQL]	50 to 75%
GLVQSLTSI [peptide GLVQSLTSI]	≥ 75%
SLLSEIQAL [peptide SLLSEIQAL]	≥ 75%
FLVEHVLTL [peptide FLVEHVLTL]	≥ 75%
ALTALQNYL [peptide ALTALQNYL]	50 to 75%
ALAGSSPQV [peptide ALAGSSPQV]	50 to 75%
FLSSEAANV [peptide FLSSEAANV]	20 to 50%
SLADAVEKV [peptide SLADAVEKV]	50 to 75%
ILTELPPGV [peptide ILTELPPGV]	20 to 50%
GLSYIYNTV [peptide GLSYIYNTV]	20 to 50%
TLLGLAVNV [peptide TLLGLAVNV]	≥ 75%
ALEEQLHQV [peptide ALEEQLHQV]	20 to 50%
